Test results reported in publication PMC11300487, “C-phycocyanin reinforces autophagy to block pulmonary fibrogenesis by inhibiting lncIAPF biogenesis” (Archives of Pharmacal Research, 2024).

Target: T1, C-phycocyanin (Spirulina platensis, UniProt P72509 1-162; P72508 1-172)
T1 construct: C-phycocyanin alpha subunit, Spirulina platensis; C-phycocyanin beta subunit, Spirulina platensis; the source organism is told in the introduction only; also called C-PC; source: bought: Aladdin, Shanghai
Test: SPR; equilibrium dissociation constant; who was immobilised and the conditions not given
Details: both partners purified

- Kd: 683 nM
B1: activating transcription factor 3 (natural protein, UniProt P18847 1-181, looked up)
chain: MMLQHPGQVSASEVSASAIVPCLSPPGSLVFEDFANLTPFVKEELRFAIQNKHLCHRMSSALESVTVSDRPLGVSITKAEVAPEEDERKKRRRERNKIAAAKCRNKKKEKTECLQKESEKLESVNAELKAQIEELKNEKQHLIYMLNLHRPTCIVRAQNGRTPEDERNLFIQQIKEGTLQS
notes: ATF3 as used in the SPR experiment; the ATF3 protein used there is not described; also called ATF3
